In patent publication US20200129630A1, “METHODS FOR TREATING CANCER” (BicycleRD Limited, priority 2018, published 2020):
Numbered stars: 1 amine (or outer) side, 2 acyl side, 3 side chain; on linkers, the order of the positions; unused ones are H or OH. Bridge positions count the residues as written; N and C are the ends. Square brackets hold non-standard residues; d marks the D form. Peptide text beside a SMILES is read from it. * marks the point of attachment. X1 = COc1cc2cc(c1Cl)N(C)C(=O)C[C@H](OC(=O)[C@H](C)N(C)C(=O)CCSSC(C)CCC(=O)*)[C@]1(C)O[C@H]1[C@H](C)[C@@H]1C[C@@](O)(NC(=O)O1)[C@H](OC)/C=C/C=C(\C)C2; 1Nal = N[C@@H](Cc1cccc2ccccc12)C(=O)O; TBMB = c1c(C[*:1])cc(C[*:3])cc1C[*:2]; Tle = CC(C)(C)[C@H](N)C(=O)O; βAla = NCCC(=O)O; Sar = CNCC(=O)O

Legend:
[1] = Non-GLP toxicity studies, monkey; assay type: in vivo, monkeys
Description: These include in vitro tissue microarray in human, rat and monkey tissues and in vitro and in vivo assessment of immunogenicity. In vivo assessments include single dose toxicity in mice and rats, multiple dose range finding studies in mice, rats, dogs and monkeys (non-GLP) and GLP-compliant multiple dose studies in rats and monkeys consisting of 28-day on study phase with a 28-day recovery period.

[2] = GLP-compliant 28-day repeat dose toxicity study, rat; assay type: in vivo
Protocol: In a GLP-compliant study in Cynomolgus monkeys, the highest non-severely toxic dose (HNSTD) of BT1718 was established to be 18 mg/m^2 administered twice weekly, equivalent to a human dose of 0.48 mg/kg. In a GLP-compliant study in the rat, the MTD was not reached with the highest administered dose 6 mg/m^2 twice weekly. At this dose level, there was kidney toxicity (with no effect on clinical condition) and also testicular toxicity. After 28 days off-dose, there was evidence of partial recovery of kidney-related findings, but no recovery of testicular effects at this dose level. […] Therefore, the MTD for rat for twice weekly dosing was considered to be between 1 and 1.5 mg/kg.

[3] = LC-MS/MS quantification of DM1 in patient tumor samples; assay type: in vivo, patients; conditions: three patient tumor samples
Protocol: A quantitative high performance liquid chromatography-tandem mass spectrometry (LC-MS/MS) method for the quantification of DM1 in tissue samples was developed.
DM1 was administered as complexed with a bicyclic peptide in […]. In order to determine the concentration of the free DM1 the conjugated molecule was reduced and subsequently derivatized with vinyl pyridine.
The same sample preparation procedure used for PK determination in the GLP pre-clinical studies, is applied for the determination of DM1 in tissue samples, In short: after tissue homogenization samples were reduced with TCEP prior derivatization by vinyl-pyiridine. […]
The homogenization method was optimized as follows: • 1) Thaw the tissue samples at room temperature. • 2) Weight the desired amount of tissue in a Precellys 2 mL Reinforced tube on an Analytical Balance. • 3) Use the weight of the tissue to calculate the volume of solution. […] Homogenization solution: (NaCl (0.9%): SDS (0.2 mg/mL) (50:50 v/v %)) • 4) Add the calculated amount of solution to the tissue. • 5) Vortex for approximately 5 seconds. • 6) Pre-cool the samples in a wet ice bath for approximately 8 minutes • 7) Run the Precellys-24 Dual homogenizer at 5000 rpm in five sessions of 40 seconds. • 8) Centrifuge the homogenate samples 3 minutes at 3000 rpm at 4° C. using a 5810-R centrifuge.

[4] = Sprague Dawley rat PK study; assay type: in vivo; conditions: plasma, 15 mg/m2, male, 15 mg/m^2 IV
[5] = PK samples in EBC-1 xenograft study; conditions: female, BALB/c, mouse, plasma, iv
BALB/c mouse PK study = conditions: female; for Cmax: BALB/c mouse, 15 mg/m^2 (5 mg/kg) IV
[6] = CD1 mouse dose response PK study
HCC-1806 = assay: In vitro cytotoxicity (CellTiter-Glo) HCC-1806; assay type: cell-based; conditions: HCC-1806, Breast
Description: (§1) Table 1 and Table 2 Notes: in general regression and stable disease correlated with the in vitro cytotoxicity and MT1-MMP expression. Female BALB/c mice n=3/group animals dosed twice per week except EBC-1 three per week. Tumor growth inhibition (TGI) (%)=[1−(Ti−T0)/(Vi−V0)]×100; Ti is the average tumor volume of a treatment group on a given day, TO is the average tumor volume of the treatment group on the day of treatment start, Vi is the average tumor volume of vehicle control group on the same day with Ti, and V0 is the average tumor volume of vehicle group on the day of treatment start. A one-way ANOVA was performed to compare tumor volume among groups, and when a significant F-statistics (a ratio of treatment variance to the error variance) was obtained, comparisons between groups were carried out with Games-Howell test. All data were analyzed using GraphPad Prism.* p<0.05, ** p<0.01, *** p<0.001. In vitro cytotoxicity was measured by CellTiter-Glo®, MT1-MMP membrane H score from immunohistochemistry staining, NM not measured. Tumor size on Day 1 of dosing.

SNU-16 = assay: In vitro cytotoxicity (CellTiter-Glo) SNU-16; assay type: cell-based; conditions: SNU-16, Gastric
Description: as §1

[7] = Plasma protein binding, mouse; assay type: in vitro ADME, mice; conditions: read-out: free fraction
Protocol: Plasma protein binding of BT1718 was also assessed. The mean plasma protein binding of the BT1718 peptide ranged from 87% to 98%, with the free fraction of BT1718 being 13% in human, 2.6% in rats, 7.5% in mice, 3.8% in monkey and 1.5% in dog plasma, the results had no correlation to the plasma and whole blood stability data. […] Plasma protein binding of unconjugated DM1, has previously been reported, with the unbound fraction being 7% in human and monkey and 3% in rat.

[8] = rat GLP, 1 mg/kg (6 mg/m^2) twice weekly
[9] = rat GLP, males 1 mg/kg (6 mg/m^2) twice weekly
[10] = BALB/c, mouse, plasma, iv, 15 mg/m2
[11] = male, CD1, mouse, plasma, iv, 15 mg/m2
[12] = male, CD1, mouse, plasma, iv, 30 mg/m2
[13] = male, CD1, mouse, plasma, iv, 60 mg/m2

## COc1cc2cc(c1Cl)N(C)C(=O)C[C@H](OC(=O)[C@H](C)N(C)C(=O)CCSSC(C)CCC(=O)NCCC(=O)N(C)CC(=O)N(C)CC(=O)N(C)CC(=O)N(C)CC(=O)N(C)CC(=O)N(C)CC(=O)N(C)CC(=O)N(C)CC(=O)N(C)CC(=O)N(C)CC(=O)N[C@@H](C)C(=O)N[C@H]1CSCc3cc4cc(c3)CSC[C@H](NC(=O)[C@@H](C)NC(=O)[C@H](Cc3cccc5ccccc35)NC(=O)[C@H](CCC(=O)O)NC(=O)[C@H](CC(N)=O)NC(=O)[C@@H](C)NC1=O)C(=O)N[C@@H](CCC(=O)O)C(=O)N[C@@H](CC(=O)O)C(=O)N[C@@H](Cc1ccccc1)C(=O)N[C@@H](Cc1ccc(O)cc1)C(=O)N[C@@H](CC(=O)O)C(=O)N[C@@H](C(C)(C)C)C(=O)N[C@H](C(N)=O)CSC4)[C@]1(C)O[C@H]1[C@H](C)[C@@H]1C[C@@](O)(NC(=O)O1)[C@H](OC)/C=C/C=C(\C)C2 (stereo partly shown) [BT1718] ({X1-βAla}-[Sar][Sar][Sar][Sar][Sar][Sar][Sar][Sar][Sar][Sar]AC[dA]NE[1Nal][dA]CEDFYD[Tle]C-NH2; linker 12-18-25 via TBMB (inferred))
[1]; monkeys 2 mg/kg, 24 mg/m^2 once weekly
  peripheral haematology: significant decreases in WBCs
[1]; monkeys, single 3 mg/kg (36 mg/m^2) one week post 1.5 mg/kg dose
  GI findings: mild single cell necrosis of the glandular epithelial cells in the caecum
[2]; GLP rat
  GI-related findings: No GI-related findings
  bladder changes: No bladder changes
[2]; GLP rat, highest administered dose 6 mg/m^2 twice weekly
  MTD: not reached
[2]; in vivo, intravenous, considered from GLP and non-GLP rat studies, read-out: MTD for rat for twice weekly dosing
  MTD at 28 day: 1 to 1.5 mg/kg
[2]; rat 28-day GLP study
  anti-drug antibodies (ADAs) in serum: negative
[2]; rat GLP 28 day, 1 mg/kg (6 mg/m^2) twice weekly
  hepatic findings: minimal to slight reversible hepatocellular atrophy
[2]; rat GLP 28 day, 1 mg/kg twice weekly
  raised ALP, AST and cholesterol, from control values: ≤ 1.5 ×
[2]; [8]
  erythrocyte parameters, maximum drop: 0.64 ×
  increase in platelets, maximum: 2.3 ×
[2]; rat GLP, 1 mg/kg (6 mg/m^2) twice weekly, females
  reduction in reticulocytes: 0.37 ×
[2]; rat GLP, 1 mg/kg (6 mg/m^2) twice weekly, males
  reduction in reticulocytes: 0.06 ×
[2]; rat GLP, all males 1 mg/kg (6 mg/m^2) twice weekly
  reproductive organ findings: testicular degeneration/atrophy of the seminiferous tubules and the absence of sperm
[2]; rat GLP, females 1 mg/kg (6 mg/m^2) twice weekly
  incidence of minimal hypertrophy of the zona glomerulosa: 5 of 10
[2]; rat GLP, males 0.2 mg/kg (1.2 mg/m^2) twice weekly
  incidence of minimal hypertrophy of the zona glomerulosa: 2 of 10
[2]; rat GLP, males 0.5 mg/kg (3 mg/m^2) twice weekly
  incidence of minimal hypertrophy of the zona glomerulosa: 3 of 10
[2]; [9]
  adrenal gland terminal weights: significantly lower terminal weights
  incidence of minimal hypertrophy of the zona glomerulosa: 4 of 10
[2]; rat GLP, twice weekly
  onset dose of renal tubular epithelial degeneration: 0.2 mg/kg
[2]; rat study
  axonal degeneration: not observed
[3]
  delivery of DM1 to tumor: delivery of DM1 to tumor in two patients
[4]
  AUC: 1.5 ± 0.2 µM·h
  clearance: 9.4 ± 1.1 mL/min/kg
  half-life: 33.6 ± 6.6 min
[4]; read-out: C0/Cmax
  Cmax: 4.2 ± 1.1 µM
[4]; read-out: Vdss
  Vd: 0.29 ± 0.03 L/kg
[5]; 3 mg/kg
  Cmax: 1.5 ± 0.9 µM
[5]; 10 mg/kg
  Cmax: 7.6 ± 0.6 µM
BALB/c mouse PK study; BALB/c, mouse, plasma, intravenous, 5 mg/kg
  AUC: ~2.5 µM·h
BALB/c mouse PK study; BALB/c, mouse, plasma, iv, 5 mg/kg, C0/Cmax
  Cmax: 8 µM
BALB/c mouse PK study; [10]
  AUC: 2.3 ± 0.2 µM·h
  Vd: 0.23 ± 0.09 L/kg
  clearance: 7.5 ± 0.6 mL/min/kg
  half-life: 33.6 ± 10.8 min
BALB/c mouse PK study; read-out: C0/Cmax
  Cmax: 7.2 ± 0.41 µM
[6]; CD1, mouse, plasma, intravenous, 10 mg/kg
  AUC: 5.3 µM·h
[6]; CD1 mouse, male, 30 mg/m^2 IV
  AUC: 5.3
[6]; CD1 mouse, male, 60 mg/m^2 IV
  AUC: 11.6
[6]; male, CD1, mouse, plasma, intravenous, 20 mg/kg
  AUC: 11.6 µM·h
[6]; [11]
  AUC: 2.8 µM·h
  Cmax: 9.3 µM
  Vd: 0.2 L/kg
  clearance: 8.4 mL/min/kg
  half-life: 19.8 min
[6]; male, CD1, mouse, plasma, iv, 20 mg/kg
  Cmax: 38.2 µM
[6]; [12]
  Vd: 0.27 L/kg
  clearance: 9 mL/min/kg
  half-life: 20.4 min
[6]; [13]
  Vd: 0.22 L/kg
  clearance: 8.2 mL/min/kg
  half-life: 20.4 min
HCC-1806
  IC50: 1.4 nM
SNU-16
  IC50: 19.5 nM
[7]
  fraction unbound: 0.075
